B1: 1A9 antibody (human CD33^PAN antibody clone, hybridoma-derived) (antibody, V domains shown)
VH: EVQLVESGGGLVQPGGSLRLSCAASGFTFSIYDMHWVRQATGKGLEWVSAIGTAGDTYYAGSVKGRFTISRENAKNSLYLQMNSLRAGDTAVYYCAREYSGYYFDYWGQGTLVTVSS
VL: AIQMTQSPSSLSASVGDRVTITCRASQDIRNDLGWYQQKPGKAPKILIYGASSLQSGVPSRFSGSGSGTDFTFTISSLQPEDFATYYCLQEYNYPCTFGQGTKLEIK
notes: also called clone 1A9
B2: 1E6 antibody (human CD33^PAN antibody clone, hybridoma-derived) (antibody, V domains shown)
VH: QVQLVESGGGVVQPGRSLRLSCAASGFTFSSYDIHWVRQAPGKGLEWVAVIWYDGSHNYYSDSVKGRFTISRDNSKNTLYLQMNSLRAEDTAVYYCARDYSGSYYDYWGQGTLVTVSS
VL: B1 VL with D28G, I46L, G50A, S53N, F73L, E91D, N93S, C96R, L104V
notes: also called clone 1E6
B3: 1B9 antibody (human CD33^PAN antibody clone, hybridoma-derived) (antibody, V domains shown)
VH: B2 VH with T28I, Y105F
VL: B1 VL with Q37L, K39R, I46L, G50A, F73L, E91D, N93S, C96R, K103T, L104V
notes: also called clone 1B9
B4: 1D2 antibody (human CD33^PAN antibody clone, hybridoma-derived) (antibody, V domains shown)
VH: B2 VH with H57Q, N58K, S61A
VL: AIQMTQSPSSLSASVGDRVTITCRASQGIRNDLGWYQQKPGKAPELLIYATSSLQSGVPSRFSGSGSGTDFTLIISSLQPEDFATYYCLQDYSYPRTFGQGTKVEIK
notes: also called clone 1D2
B5: 1H10 antibody (human CD33^PAN antibody clone, hybridoma-derived) (antibody, V domains shown)
VH: QVQLVQSGAEVKKPGASVKVSCKGSGYIFTSYDMHWVRQAPGQGLEWMGIIDPSGGSTSYAQKFQGRVTMTRDTSMSTVYMELSSLRSEDTAVYYCTRDYSWSYFDYWGQGTLVTVSS
VL: B4 VL with N31I, D32Y, E45K, I74T, S93N, R96W
notes: also called clone 1H10
B6: 1H8 antibody (human CD33V-set antibody clone, hybridoma-derived) (antibody, V domains shown)
VH: QVQLVESGGGVVQPGGSLRLSCAASGFTFGSYGMHWVRQAPGKGLEWVAVIWYDGSNEYYADSVKGRFTVSRDNSKHTLYLQMNRLRAEDTAVYYCARDLDYDSSGGDYWGQGILVLVSS
VL: EIVLTQSPDFQSVTPKEKVTITCRASQNIGGNLHWYQQKPDQSPKLLIRYATQPFSGVPSRFGGSGSGTDFTLTINSLEAEDAATYYCHQSSSLPLTFGGGTKVEIK
notes: also called clone 1H8
B7: 2D3 antibody (human CD33V-set antibody clone, hybridoma-derived) (antibody, V domains shown)
VH: EVQLLESGGGLVQPGGSLSLSCAASGFTFSIYAMSWVRQAPGKGLEWVSAISDSGGTTYYADSVKGRFTISRDNSKNMLYLEMNSLRAEDTAIYYCAKRTRYFNGMDVWGQGTTVTVSS
VL: EIVMTQSPATLSLSPGERATLSCRASQSGSSSFLSWYQQKPGQAPRLLIYGASTRATGIPARFSGSGSGTDFTLTISSLQPEDFAVYYCQQDYNLPFTFGPGTKVDIK
notes: also called clone 2D3

This is an account of results in patent US20260265404A1 (FRED HUTCHINSON CANCER CENTER, published 2026).

Changes are numbered by the printed parent chain.

The target in one test is T1, human full-length CD33 (CD33^FL) (human, UniProt P20138 18-364).
T1 construct: also called Siglec-3
T1 sequence (P20138 18-364): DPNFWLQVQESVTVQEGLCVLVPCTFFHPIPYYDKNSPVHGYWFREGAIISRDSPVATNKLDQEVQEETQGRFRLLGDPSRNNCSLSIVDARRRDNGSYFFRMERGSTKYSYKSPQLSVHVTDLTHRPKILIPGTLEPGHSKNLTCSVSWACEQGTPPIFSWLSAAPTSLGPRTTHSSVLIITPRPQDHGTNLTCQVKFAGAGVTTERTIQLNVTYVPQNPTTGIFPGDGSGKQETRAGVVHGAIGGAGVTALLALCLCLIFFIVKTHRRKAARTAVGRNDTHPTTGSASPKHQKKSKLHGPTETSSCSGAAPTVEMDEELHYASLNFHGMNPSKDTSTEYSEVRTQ
Nature of the test: flow cytometry on parental CD33+ ML-1 cells against ML-1 CD33 KO cells (endogenous CD33). In general terms: A flow cytometer gives signals particle by particle.
For B1, the binding result was “binds”.

With B2, the binding result is listed as “binds”.

B3: the binding result is given as “binds”.

In the case of B4, the binding result is listed as “binds”.

The target in a further test is T1, human full-length CD33 (CD33^FL). The test can be described thus: flow cytometry on REH subline expressing CD33^FL.
In the case of B5, the binding result is “binds”.

For the molecule B6, the binding result is listed as “binds”.

Regarding B7, the binding result was “binds”.
